These are literature values, as cited in paper PMC3221918.

This data set deals with IL-15RαSu soluble ECD (Homo sapiens) (UniProt Q13261).
Chain of UniProt Q13261 (Q13261 31-95): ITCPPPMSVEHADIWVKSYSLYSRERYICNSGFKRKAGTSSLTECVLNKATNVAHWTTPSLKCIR

Turning to IL-15 (from UniProt P40933), the Kd is 0.1 nM.

As usually defined, the Kd is the concentration at which binding is half-saturated.
